Test results as given in article PMC7438487, “Structural studies reveal flexible roof of active site responsible for ω-transaminase CrmG overcoming by-product inhibition” (Communications Biology, 2020).

Target: ω-transaminase CrmG from Actinoalloteichus cyanogriseus WH1-2216-6 (Actinoalloteichus cyanogriseus WH1-2216-6)
Assay: dynamic light scattering; apo CrmG at 4.8 mg/mL in 50 mM Tris buffer pH 7.5, 20 °C, DynaPro Titan

“ω-transaminase CrmG from Actinoalloteichus cyanogriseus WH1-2216-6 (enzyme)” showed a stoichiometry N of 2.
